Test results taken from article PMC4328881 (Cytokine, 2015).

Target: fibronectin (UniProt P02751 32-2477)
Assay: SPR

B1: 22 kDa (196 amino acids) OSM (natural protein, human, UniProt P13725 26-221, looked up)
chain: AAIGSCSKEYRVLLGQLQKQTDLMQDTSRLLDPYIRIQGLDVPKLREHCRERPGAFPSEETLRGLGRRGFLQTLNATLGCVLHRLADLEQRLPKAQDLERSGLNIEDLEKLQMARPNILGLRNNIYCMAQLLDNSDTAEPTKAGRGASQPPTPTPASDAFQRKLEGCRFLHGYHRFMHSVGRVFSKWGESPNRSRR
Kd: 2600 nM
